Data: US20260022169A1 (published 2026)

Molecular target: T1, CLDN18.2 (UniProt P56856 1-261)
T1 chain: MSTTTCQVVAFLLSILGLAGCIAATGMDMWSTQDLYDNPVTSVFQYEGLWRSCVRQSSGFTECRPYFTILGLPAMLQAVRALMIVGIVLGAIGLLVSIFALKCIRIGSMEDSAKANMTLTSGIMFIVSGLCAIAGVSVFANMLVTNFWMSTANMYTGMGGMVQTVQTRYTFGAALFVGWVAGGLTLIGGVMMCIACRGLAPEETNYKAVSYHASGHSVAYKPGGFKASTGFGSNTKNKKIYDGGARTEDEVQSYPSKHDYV
Assay: FACS binding, MC38/CD47/CLDN18.2 cells

B1: hu28 (antibody, V domains shown)
VH: QVQLVQSGAEVKKPGASVKVSCKASGYTFTNWVHWVRQAPGQGLEWMGEINPTNARSNYNEKFKKRVTMTRDTSTSTVYMELSSLRSEDTAVYYCARIYYGNSFAHWGQGTLVTVSS
VL: DIVMTQSPDSLAVSLGERATINCKSSQSLLNAGNQKNYLTWYQQKPGQPPKLLIYWSSTRESGVPDRFSGSGSGTDFTLTISSLQAEDVAVYHCQNNYYYPLTFGGGTKLEIKR
An EC50 of 3.24 nM was found for B1 in this work.
